Among the data in paper PMC2574583 (2008) are Kd values, retold here.

Read-outs that look alike come from different tables or passages of the source. Ends that are not written are not given here. * marks the point of attachment. Dansyl = CN(C)c1cccc2c(S(=O)(=O)*)cccc12

In experiment [1] the target is T1, bBACH1-P phosphopeptide (Homo sapiens, UniProt Q9BX63, also: phosphoserine (position not given here), biotin (position not given here)).
T1 chain: SRSTSPTFNK
Briefly: ITC.

Experiment [2] has as its target T2, CtIP phosphopeptide phosphopeptide (Homo sapiens, UniProt Q99708, also: phosphoserine (position not given here)).
T2 chain: PTRVSSPVFGAT
Nature of the experiment: SPR. In general terms: In SPR one partner is held on a chip, and binding of the other changes the refractive index at the surface.

Experiment [3] has as its target T3, BACH1-P phosphopeptide (Homo sapiens, UniProt Q9BX63, also: phosphoserine (position not given here)).
T3 chain: SRSTSPTFNK
Nature of the experiment: ITC. A general note: Isothermal titration calorimetry measures the heat released or taken up as one component is titrated into another.

Experiment [4] deals with T3, BACH1-P phosphopeptide. Nature of the experiment: ITC.
The target of experiment [5] is T3, BACH1-P phosphopeptide. Briefly: ITC.
The target in experiment [6] is T3, BACH1-P phosphopeptide. Nature of the experiment: ITC.
Experiment [7] has as its target T4, dBACH1-P phosphopeptide (Homo sapiens, UniProt Q9BX63, also: phosphoserine (position not given here)).
T4 chain: Dansyl-SRSTSPTFNK
Nature of the experiment: fluorescence anisotropy. For orientation: In fluorescence polarisation assays a small probe gives low polarisation when free and higher when bound to something large.

In experiment [8] the target is T3, BACH1-P phosphopeptide. Nature of the experiment: ITC.
The target in experiment [9] is T1, bBACH1-P phosphopeptide. Nature of the experiment: SPR steady-state.
Experiment [10] concerns the target T1, bBACH1-P phosphopeptide. Briefly: SPR steady-state.
For experiment [11], the target named is T1, bBACH1-P phosphopeptide. Nature of the experiment: SPR steady-state.
Experiment [12] addresses T1, bBACH1-P phosphopeptide. Nature of the experiment: SPR steady-state.
Experiment [13] deals with T1, bBACH1-P phosphopeptide. Nature of the experiment: SPR kinetics.
Experiment [14] deals with T1, bBACH1-P phosphopeptide. Nature of the experiment: SPR kinetics.
Experiment [15] deals with T4, dBACH1-P phosphopeptide. Nature of the experiment: stopped-flow fluorescence.
Experiment [16] has as its target T4, dBACH1-P phosphopeptide. Briefly: stopped-flow fluorescence.

B1: BRCA1-BRCT 1646-1859 (protein)
chain: VNKRMSMVVSGLTPEEFMLVYKFARKHHITLTNLITEETTHVVMKTDAEFVCERTLKYFLGIAGGKWVVSYFWVTQSIKERKMLNEHDFEVRGDVVNGRNHQGPKRARESQDRKIFRGLEICCYGPFTNMPTDQLEWMVQLCGASVVKELSSFTLGTGVHPIVVVQPDAWTEDNGFHAIGQMCEAPVVTREWVLDSVALYQCQELDTYLIPQIP
Consider B1, for which the Kd (in general, a measure of binding affinity in units of concentration) came to 230 nM with bBACH1-P phosphopeptide [1]; 1300 nM in experiment [2]; 330 nM with BACH1-P phosphopeptide [3]; 490 nM in the experiment with BACH1-P phosphopeptide [4]; 280 nM with BACH1-P phosphopeptide [5]; 500 nM with BACH1-P phosphopeptide [6]. Besides, the dissociation constant (Kd) was found to be 180 nM with dBACH1-P phosphopeptide [7]; 410 nM in the experiment with BACH1-P phosphopeptide [8]; 560 nM with bBACH1-P phosphopeptide [9]; 530 nM with bBACH1-P phosphopeptide [10]; 350 nM in the experiment with bBACH1-P phosphopeptide [11]; 260 nM in the experiment with bBACH1-P phosphopeptide [12]. Also, the dissociation constant (Kd) with bBACH1-P phosphopeptide [13] was 430 nM; with bBACH1-P phosphopeptide [14] it was 90 nM; in the experiment with dBACH1-P phosphopeptide [15] it was 200 nM; in the experiment with dBACH1-P phosphopeptide [16], 110 nM.
